Experimental data published in patent publication US20120321554A1 (MODIQUEST B V, published 2012).
Where no end group is shown, it is not given here.

B1: Llama single domain antibody A12 (soluble sdab, C-terminal 8*His-tag and VSV-G-tag) (VHH)
VHH: QVQLQESGGGLVQPGGSLRLSCAASGSSISINNWGWYRQAPGKQRERVAAISGGGKTVYADSVKGRFTISRDNAKNTVYLQMNSLKPEDTAVYYCRAVRKSTGWLRGLDVWGQGTQVTVSA
notes: also called sdab A12; V-H single domain antibody A12
B2: M13 phage displaying single domain antibody A12 (VHH)
VHH: B1 VHH
notes: Whole M13 phage particle carrying A12; detected with anti-M13 antibody; also called phage A12; M13 phage associated antibody A12; not shown: M13 phage coat protein to which the sdab is fused (phagemid pHENIXHis8VSV); not described
B3: M13 phage displaying single domain antibody F8 (VHH)
VHH: QVQLQESGGGLVQAGDSLRLSCAASGRTFSTLIMAWFRQAPGKEREFVAAISRGGGSTSYADSVKGRFTISRDNSKNAVYLQMNSLKPDDTAVYYCNARYGSRIYWGQGTQVTVSS
notes: Whole M13 phage particle carrying F8; detected with anti-M13 antibody; also called phage F8; M13 phage associated antibody F8; not shown: M13 phage coat protein to which the sdab is fused (phagemid pHENIXHis8VSV); not described
B4: Llama single domain antibody F8 (soluble sdab, C-terminal 8*His-tag and VSV-G-tag) (VHH)
VHH: B3 VHH
notes: also called sdab F8; V-H single domain antibody F8

What was measured:
[1] = target: T1, human plexin D1 (in sections of human tumors) (human, UniProt Q9Y4D7 47-1925); test: immunohistochemistry on human tumor tissue
T1 construct: whole, on cells; Endogenous protein on tumor cells and vessels in tissue sections (immunohistochemistry); also called PLXND1

[2] = target: T2, PLXND1-peptide-KLH conjugate (human, also: conjugated to KLH, attachment site not given here); test: SPR, Biacore 2000; peptide-KLH conjugate on CM5 chip, sdab in solution, BSA surface subtracted, 1:1 Langmuir model
T2 construct: Coupled to a CM5 chip (27 ug/ml in Na-Acetate pH 4.0) for the Biacore measurements; also called KLH-conjugated peptide
T2 peptide: ALEIQRRFPSPTPTNC-NH2

Bovine serum albumin [3] = target: T3, Bovine serum albumin (bovine, UniProt P02769 25-607); test: ELISA with soluble sdab, detection via VSV-G-tag
T3 construct: Control coat in ELISA; also called BSA

Bovine serum albumin [4] = target: T3, Bovine serum albumin; test: phage ELISA, anti-M13 detection
[5] = target: mouse plexin D1 (on vessels in mouse tissue) (mouse) (UniProt Q3UH93); test: cell-based or functional assay
Sequence of mouse plexin D1 (on vessels in mouse tissue) (mouse) (Q3UH93 49-1925): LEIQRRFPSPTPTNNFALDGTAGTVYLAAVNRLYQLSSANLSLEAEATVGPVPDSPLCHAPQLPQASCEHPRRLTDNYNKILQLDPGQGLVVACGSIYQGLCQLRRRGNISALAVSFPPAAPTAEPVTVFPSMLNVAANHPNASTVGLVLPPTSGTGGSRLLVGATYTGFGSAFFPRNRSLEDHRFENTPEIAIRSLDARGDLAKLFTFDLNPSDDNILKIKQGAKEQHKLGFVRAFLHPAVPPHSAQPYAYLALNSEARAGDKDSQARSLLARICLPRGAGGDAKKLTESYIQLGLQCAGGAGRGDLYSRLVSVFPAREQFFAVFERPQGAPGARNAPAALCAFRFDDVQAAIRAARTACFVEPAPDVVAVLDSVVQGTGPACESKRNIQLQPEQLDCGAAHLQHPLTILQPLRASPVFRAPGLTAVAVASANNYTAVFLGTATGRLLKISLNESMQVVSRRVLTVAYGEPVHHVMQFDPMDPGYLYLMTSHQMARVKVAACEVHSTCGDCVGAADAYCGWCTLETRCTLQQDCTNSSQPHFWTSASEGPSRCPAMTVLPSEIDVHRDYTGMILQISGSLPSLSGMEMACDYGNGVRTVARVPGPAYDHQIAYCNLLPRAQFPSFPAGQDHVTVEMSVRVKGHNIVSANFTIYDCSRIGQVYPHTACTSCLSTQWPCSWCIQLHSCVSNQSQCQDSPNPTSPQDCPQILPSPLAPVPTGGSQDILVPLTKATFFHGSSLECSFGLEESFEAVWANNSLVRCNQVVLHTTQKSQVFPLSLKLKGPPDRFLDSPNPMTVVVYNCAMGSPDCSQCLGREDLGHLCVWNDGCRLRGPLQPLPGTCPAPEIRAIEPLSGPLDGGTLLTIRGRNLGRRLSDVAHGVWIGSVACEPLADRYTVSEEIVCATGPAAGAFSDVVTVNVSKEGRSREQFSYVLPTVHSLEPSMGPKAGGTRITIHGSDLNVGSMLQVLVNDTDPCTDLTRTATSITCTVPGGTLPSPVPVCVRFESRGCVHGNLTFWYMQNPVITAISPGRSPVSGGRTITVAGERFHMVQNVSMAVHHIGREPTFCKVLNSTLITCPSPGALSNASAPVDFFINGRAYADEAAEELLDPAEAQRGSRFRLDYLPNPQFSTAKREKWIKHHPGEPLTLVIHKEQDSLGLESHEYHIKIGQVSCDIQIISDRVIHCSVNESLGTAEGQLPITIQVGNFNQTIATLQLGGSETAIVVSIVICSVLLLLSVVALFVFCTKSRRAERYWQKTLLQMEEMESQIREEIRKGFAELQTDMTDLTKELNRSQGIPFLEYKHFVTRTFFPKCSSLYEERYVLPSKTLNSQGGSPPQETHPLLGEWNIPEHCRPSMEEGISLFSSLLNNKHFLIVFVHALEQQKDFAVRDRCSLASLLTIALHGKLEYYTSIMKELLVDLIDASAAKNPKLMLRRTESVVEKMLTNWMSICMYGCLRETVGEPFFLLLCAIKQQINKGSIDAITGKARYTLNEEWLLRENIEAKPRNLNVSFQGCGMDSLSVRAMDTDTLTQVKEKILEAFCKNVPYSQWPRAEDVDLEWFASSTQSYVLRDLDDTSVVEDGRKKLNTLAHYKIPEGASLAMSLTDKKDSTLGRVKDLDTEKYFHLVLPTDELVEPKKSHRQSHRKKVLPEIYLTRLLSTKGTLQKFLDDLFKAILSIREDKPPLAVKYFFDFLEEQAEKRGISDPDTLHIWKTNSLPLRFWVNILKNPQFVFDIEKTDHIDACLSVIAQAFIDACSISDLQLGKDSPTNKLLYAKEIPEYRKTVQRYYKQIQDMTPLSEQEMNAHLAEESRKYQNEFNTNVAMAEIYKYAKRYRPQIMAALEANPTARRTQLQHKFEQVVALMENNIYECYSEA

T3 sequence (P02769 25-607 limits assumed): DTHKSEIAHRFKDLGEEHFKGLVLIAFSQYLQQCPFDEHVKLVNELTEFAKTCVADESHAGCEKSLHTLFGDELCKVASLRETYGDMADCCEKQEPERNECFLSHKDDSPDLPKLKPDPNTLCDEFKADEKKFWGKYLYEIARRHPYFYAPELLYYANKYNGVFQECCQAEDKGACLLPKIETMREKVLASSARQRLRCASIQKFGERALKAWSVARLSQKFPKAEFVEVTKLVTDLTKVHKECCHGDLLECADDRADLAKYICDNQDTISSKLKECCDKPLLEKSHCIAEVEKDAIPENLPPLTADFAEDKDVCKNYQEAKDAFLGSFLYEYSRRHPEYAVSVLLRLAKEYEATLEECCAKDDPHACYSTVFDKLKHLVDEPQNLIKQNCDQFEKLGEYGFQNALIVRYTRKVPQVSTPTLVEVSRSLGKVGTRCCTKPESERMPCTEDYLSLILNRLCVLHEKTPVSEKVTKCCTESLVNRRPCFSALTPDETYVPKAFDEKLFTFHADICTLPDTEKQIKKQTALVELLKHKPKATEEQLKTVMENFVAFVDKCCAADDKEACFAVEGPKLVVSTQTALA
T1 sequence (Q9Y4D7 47-1925): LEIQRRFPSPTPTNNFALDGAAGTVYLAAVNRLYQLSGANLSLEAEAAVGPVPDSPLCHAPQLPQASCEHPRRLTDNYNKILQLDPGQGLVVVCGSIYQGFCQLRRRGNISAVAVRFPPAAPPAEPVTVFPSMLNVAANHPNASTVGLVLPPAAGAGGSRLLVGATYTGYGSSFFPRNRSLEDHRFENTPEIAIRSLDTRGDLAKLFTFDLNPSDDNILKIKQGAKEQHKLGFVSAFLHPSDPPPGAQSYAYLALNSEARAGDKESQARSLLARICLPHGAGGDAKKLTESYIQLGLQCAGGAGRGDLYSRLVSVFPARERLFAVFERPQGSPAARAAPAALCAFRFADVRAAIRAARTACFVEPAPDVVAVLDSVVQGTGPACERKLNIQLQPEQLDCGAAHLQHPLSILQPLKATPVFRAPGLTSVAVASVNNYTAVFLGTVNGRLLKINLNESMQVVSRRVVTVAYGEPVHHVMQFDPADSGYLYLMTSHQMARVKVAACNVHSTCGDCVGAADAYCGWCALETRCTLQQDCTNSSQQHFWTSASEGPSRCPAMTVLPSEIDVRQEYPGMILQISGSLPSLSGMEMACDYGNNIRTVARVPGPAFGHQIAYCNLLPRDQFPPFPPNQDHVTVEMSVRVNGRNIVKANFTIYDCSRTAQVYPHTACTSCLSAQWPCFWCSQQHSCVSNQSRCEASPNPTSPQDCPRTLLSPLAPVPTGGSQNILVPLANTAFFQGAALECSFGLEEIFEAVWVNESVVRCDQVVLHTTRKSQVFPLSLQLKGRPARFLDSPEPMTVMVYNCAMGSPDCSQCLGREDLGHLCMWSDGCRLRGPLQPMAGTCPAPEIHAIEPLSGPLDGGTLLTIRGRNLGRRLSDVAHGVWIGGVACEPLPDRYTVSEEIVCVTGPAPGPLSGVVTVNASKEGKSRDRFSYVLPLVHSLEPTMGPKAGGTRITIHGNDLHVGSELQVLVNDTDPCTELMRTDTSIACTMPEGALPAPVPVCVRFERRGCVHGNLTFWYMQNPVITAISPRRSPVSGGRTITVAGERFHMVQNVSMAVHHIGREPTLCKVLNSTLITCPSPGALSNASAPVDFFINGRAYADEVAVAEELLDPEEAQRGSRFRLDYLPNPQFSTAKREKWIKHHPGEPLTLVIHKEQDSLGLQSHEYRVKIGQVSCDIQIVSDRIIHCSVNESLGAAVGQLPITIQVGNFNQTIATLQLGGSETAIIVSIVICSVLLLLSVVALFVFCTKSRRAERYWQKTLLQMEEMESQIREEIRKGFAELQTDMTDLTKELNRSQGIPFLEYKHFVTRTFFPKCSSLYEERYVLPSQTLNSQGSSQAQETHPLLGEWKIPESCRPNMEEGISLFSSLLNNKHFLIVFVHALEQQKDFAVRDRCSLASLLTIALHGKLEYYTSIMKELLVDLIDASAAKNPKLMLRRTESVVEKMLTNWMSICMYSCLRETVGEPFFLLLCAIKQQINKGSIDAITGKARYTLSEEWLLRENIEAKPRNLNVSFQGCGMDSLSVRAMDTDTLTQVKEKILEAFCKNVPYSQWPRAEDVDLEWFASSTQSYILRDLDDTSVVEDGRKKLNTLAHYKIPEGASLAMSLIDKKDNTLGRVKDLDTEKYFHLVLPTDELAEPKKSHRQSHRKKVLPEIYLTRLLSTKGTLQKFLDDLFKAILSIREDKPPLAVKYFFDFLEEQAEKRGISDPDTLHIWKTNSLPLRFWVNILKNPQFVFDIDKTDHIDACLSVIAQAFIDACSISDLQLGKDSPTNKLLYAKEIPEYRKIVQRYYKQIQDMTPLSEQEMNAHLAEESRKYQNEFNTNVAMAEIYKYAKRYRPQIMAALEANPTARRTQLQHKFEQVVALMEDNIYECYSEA

Binder	binding result [1]	Kd [2]	binding result (Bovine serum albumin [3])	binding result (Bovine serum albumin [4])	quantification of phage homing: colony-forming phages eluted from laser-dissected tumor tissue against unaffected brain [5]
B1	binds	21 nM	no binding	–	–
B2	–	–	–	no binding (tested: 10^10 phages)	–
B3	–	–	–	no binding (tested: 10^10 phages)	20 fold
B4	–	35 nM	no binding	–	–
